Consider six variants from IntAct's records for PubMed 21240272.

To fix the notation:
B1: G protein pathway suppressor 2 (Homo sapiens), Q13227 (parent)
chain: MPALLERPKLSNAMARALHRHIMMERERKRQEEEEVDKMMEQKMKEEQERRKKKEMEERMSLEETKEQILKLEEKLLALQEEKHQLFLQLKKVLHEEEKRRRKEQSDLTTLTSAAYQQSLTVHTGTHLLSMQGSPGGHNRPGTLMAADRAKQMFGPQVLTTRHYVGSAAAFAGTPEHGQFQGSPGGAYGTAQPPPHYGPTQPAYSPSQQLRAPSAFPAVQYLSQPQPQPYAVHGHFQPTQTGFLQPGGALSLQKQMEHANQQTGFSDSSSLRPMHPQALHPAPGLLASPQLPVQMQPAGKSGFAATSQPGPRLPFIQHSQNPRFYHK
partner: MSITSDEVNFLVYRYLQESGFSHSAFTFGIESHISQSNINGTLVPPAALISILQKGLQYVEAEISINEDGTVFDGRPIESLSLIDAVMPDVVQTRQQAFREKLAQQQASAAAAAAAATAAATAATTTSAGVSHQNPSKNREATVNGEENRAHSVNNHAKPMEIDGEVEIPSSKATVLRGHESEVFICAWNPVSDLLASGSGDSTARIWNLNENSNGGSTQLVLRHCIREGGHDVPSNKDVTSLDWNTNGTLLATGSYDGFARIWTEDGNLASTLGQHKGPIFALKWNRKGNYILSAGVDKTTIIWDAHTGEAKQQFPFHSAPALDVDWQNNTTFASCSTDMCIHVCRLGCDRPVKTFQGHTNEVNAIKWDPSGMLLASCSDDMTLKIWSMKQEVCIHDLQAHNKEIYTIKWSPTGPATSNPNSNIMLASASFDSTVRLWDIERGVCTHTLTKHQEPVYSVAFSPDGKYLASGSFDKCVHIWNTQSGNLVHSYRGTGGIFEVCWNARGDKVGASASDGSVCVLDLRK
B2: F-box-like/WD repeat-containing protein TBL1X (Homo sapiens), O60907-2 (parent)
chain: B1 partner

Variants of B1 are the subject of one experiment. To be noted: with TBL1X.
On to H19A;R20E;I22A, for which the “effect of a mutation on the interaction” value is recorded as “disrupting interaction”.

Another experiment covers variants of B2. The following applies: with ncor2_human NCOR2, Q9Y618.
ncor2_human NCOR2, Q9Y618, sequence (Q9Y618 whole entry): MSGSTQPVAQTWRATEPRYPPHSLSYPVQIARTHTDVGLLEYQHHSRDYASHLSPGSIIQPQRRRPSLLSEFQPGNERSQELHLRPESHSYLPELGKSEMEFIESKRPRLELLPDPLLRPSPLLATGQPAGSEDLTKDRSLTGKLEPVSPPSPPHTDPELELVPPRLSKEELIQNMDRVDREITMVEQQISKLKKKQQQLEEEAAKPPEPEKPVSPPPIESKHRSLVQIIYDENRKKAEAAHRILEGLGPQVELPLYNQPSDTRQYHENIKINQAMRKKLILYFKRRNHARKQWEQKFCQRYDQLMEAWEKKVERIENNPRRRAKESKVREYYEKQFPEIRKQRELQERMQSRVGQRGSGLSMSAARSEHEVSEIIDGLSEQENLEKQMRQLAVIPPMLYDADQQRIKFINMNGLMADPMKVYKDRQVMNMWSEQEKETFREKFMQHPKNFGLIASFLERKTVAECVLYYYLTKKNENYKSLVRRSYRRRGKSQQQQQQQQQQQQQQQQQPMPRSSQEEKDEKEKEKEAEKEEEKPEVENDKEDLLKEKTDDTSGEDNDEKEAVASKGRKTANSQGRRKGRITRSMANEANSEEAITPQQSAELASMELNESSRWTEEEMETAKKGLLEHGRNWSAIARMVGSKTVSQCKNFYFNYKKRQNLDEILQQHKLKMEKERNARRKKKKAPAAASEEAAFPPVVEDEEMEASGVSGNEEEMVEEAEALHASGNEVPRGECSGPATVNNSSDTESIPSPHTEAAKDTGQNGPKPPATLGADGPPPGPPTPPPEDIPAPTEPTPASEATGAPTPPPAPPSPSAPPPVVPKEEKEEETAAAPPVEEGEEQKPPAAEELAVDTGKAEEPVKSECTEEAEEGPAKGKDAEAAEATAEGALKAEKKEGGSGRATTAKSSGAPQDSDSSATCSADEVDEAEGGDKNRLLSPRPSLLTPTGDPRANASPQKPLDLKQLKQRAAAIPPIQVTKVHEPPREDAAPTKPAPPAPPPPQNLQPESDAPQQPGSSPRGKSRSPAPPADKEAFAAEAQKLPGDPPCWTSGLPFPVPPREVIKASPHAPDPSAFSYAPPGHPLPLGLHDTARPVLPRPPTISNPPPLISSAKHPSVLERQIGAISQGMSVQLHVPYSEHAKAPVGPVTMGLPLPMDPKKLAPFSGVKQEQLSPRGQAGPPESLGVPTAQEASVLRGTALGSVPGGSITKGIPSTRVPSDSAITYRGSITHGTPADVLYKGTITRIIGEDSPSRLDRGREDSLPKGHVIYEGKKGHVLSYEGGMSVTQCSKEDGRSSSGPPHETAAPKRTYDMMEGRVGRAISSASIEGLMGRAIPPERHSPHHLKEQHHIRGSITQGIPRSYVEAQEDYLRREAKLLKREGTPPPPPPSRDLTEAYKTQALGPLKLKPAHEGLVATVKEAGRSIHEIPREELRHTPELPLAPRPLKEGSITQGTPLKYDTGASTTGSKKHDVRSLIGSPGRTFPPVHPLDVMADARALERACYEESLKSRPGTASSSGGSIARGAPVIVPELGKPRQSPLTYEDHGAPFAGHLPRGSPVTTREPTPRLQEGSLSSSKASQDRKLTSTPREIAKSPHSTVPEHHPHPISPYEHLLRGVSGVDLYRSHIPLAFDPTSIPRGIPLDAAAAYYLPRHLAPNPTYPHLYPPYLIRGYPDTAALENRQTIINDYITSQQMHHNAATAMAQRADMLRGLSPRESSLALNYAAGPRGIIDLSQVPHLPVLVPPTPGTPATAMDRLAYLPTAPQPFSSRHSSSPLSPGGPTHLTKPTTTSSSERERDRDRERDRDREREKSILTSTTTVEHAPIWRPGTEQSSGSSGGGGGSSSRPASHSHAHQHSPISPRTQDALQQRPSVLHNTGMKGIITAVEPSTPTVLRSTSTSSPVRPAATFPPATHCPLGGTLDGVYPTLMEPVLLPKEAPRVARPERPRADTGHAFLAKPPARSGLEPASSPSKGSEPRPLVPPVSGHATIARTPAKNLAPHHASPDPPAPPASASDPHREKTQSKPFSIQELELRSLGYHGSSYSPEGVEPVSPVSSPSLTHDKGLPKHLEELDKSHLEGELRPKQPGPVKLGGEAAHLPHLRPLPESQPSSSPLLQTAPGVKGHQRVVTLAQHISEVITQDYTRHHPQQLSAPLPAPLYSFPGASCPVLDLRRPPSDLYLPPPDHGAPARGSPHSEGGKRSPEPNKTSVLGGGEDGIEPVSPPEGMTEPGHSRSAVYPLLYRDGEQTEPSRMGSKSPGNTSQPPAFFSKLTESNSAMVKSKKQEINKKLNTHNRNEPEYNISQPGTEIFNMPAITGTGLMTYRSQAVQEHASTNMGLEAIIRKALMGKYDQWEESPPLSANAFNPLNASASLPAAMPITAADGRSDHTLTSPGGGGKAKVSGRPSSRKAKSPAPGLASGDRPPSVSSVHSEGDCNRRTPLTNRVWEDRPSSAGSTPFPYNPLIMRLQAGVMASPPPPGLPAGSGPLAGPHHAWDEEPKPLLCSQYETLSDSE
For L57A, the “effect of a mutation on the interaction” value was “decreasing interaction strength”.
Turning to L57Q, the “effect of a mutation on the interaction” value is listed as “decreasing interaction strength”.
Still for that read-out and setting: then I39A, with “decreasing interaction”; and V60N, with “disrupting interaction”.
As to P45G, the “effect of a mutation on the interaction” value is reported as “decreasing interaction”.

The variants in the next experiment derive from B2. To be noted: with gps2_human GPS2, Q13227.
As to L57A, the “effect of a mutation on the interaction” value was “decreasing interaction strength”.
Still for that read-out and setting: under L57Q stands “decreasing interaction strength”.
Still for that read-out and setting: then V60N, with “disrupting interaction”.
